Assay results: publication PMC2736567

Target: endogenous GRB2 (human (endogenous in HEK-293T)) (UniProt P62993)
Chain of UniProt P62993 (P62993 whole entry): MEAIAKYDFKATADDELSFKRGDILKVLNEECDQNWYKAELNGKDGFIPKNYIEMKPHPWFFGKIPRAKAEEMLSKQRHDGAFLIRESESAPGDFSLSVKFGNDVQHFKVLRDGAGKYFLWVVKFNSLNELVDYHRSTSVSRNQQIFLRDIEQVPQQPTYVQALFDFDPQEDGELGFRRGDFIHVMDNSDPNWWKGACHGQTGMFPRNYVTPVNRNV

**Q.** Which Elk1 trans-reporter after EGF in HEK-293T expressing hPIV3-C without a tag does the source give for “GST-tagged hPIV3-C (full-length) (from UniProt P06165 1-199) (natural protein)” here?
**A.** The Elk1 trans-reporter after EGF in HEK-293T expressing hPIV3-C without a tag was 14 fold.
